PMC7801515

Target: P2C-1F11 monoclonal antibody (human)
Test: SPR

SARS-CoV-2 receptor-binding domain (RBD), residues Arg319 to Lys529 (from UniProt P0DTC2 319-529) (domain or fragment)
Kd: 1.72 nM
